This note sets out measurements from patent CN107827984A (ZHANG HUILIN; ZHU JIN, dated 2018).

The target in test [1] is ROR1天然抗原 (人卵巢癌细胞系A2780) (human) (UniProt Q01973). Nature of the test: flow cytometry on A2780 cells, Fab at 30 μg/mL, FITC goat anti-human Fab secondary.
The target in test [2] is T1, 重组人ROR1蛋白 (北京义翘神州, 产品编号13968-H08H) (human, UniProt Q01973 30-403).
T1 construct: Bought protein; also called recombinant human ROR1 protein
Nature of the test: ELISA, ROR1 coated at 0.5 μg/mL, Fab from 200 μg/mL in 11 dilutions, goat anti-human Fab secondary, OD450.

T1 sequence (Q01973 30-403 limits assumed): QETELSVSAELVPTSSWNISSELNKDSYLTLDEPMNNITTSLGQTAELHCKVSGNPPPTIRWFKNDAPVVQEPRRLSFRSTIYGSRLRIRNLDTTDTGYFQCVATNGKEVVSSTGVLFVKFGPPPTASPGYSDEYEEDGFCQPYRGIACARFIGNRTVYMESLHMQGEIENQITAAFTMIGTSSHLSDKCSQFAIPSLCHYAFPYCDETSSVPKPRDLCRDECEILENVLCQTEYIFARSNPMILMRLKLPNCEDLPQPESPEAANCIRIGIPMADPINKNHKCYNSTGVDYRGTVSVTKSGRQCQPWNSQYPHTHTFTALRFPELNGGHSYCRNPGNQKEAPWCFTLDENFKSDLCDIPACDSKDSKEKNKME

B1: 嵌合抗ROR1抗体Fab分子 (Fab, V domains shown)
VH: EVQLVQSGGGLVQPKGSLKLSCAASGFTFNTYAMNWVRQAPGKGLEWVARIRSKSNNYATYYADSVKDRFTISRDDSQSMLYLQMNNLKTEDTAMYYCVSPAYYGNYVGFAYWGQGTLVTVSA
VL: ELVMTQSPTTMAASPGEKITFTCSASSSISSTYLHWFQQKPGFSPKLLIYRTSNLASGVPARFSGSGSGTSYSLTIGTMEAEDVATYYCQQGSSLPFTFGSGTKLEIKG
notes: Human-mouse chimeric Fab, L and Fd joined by an interchain disulfide; also called 抗ROR1抗体人鼠嵌合Fab分子; 抗ROR1抗体嵌合Fab分子
B1: the 结合率 in test [1] was found to be 97.4%. Also, the binding result in test [2] is listed as “binds”.
